One assay concerns the target immobilized STAT3 (Homo sapiens, UniProt P40763). In words: Static adsorption equilibrium assay, immobilized STAT3. It counts as binding. An excerpt:
Considering that the SH2 domain predominantly represents the inhibition of SHF on STAT3 dimerization and activity, we speculated that this domain may be an optional target for GBM suppression. To this end, we analyzed the mechanical interaction of SHF and STAT3. The structures of human SHF (aa265‐421) and STAT3 (aa130‐715). both of which spanned their respective SH2 domain. were simulated by Swiss‐Model server (https://swissmodel.expasy.org/). To simulate the interaction of SHF and STAT3, Discovery studio 2018 was employed to complete protein‐protein docking using ZDOCK as an initial stage. A rigid body molecular docking algorithm utilizing a fast Fourier transform (FFT) algorithm was used to further improve performance for searching in translational space. All the available structures from PDB were used to calculate the docking poses and the structures obtained were subjected to energy minimization filtration using the smart minimize algorithm (Max steps 200, RMS gradient 0.01). The highest resulting ZDock score was used as the appropriate conformational pose. […] Since these two spots are located closely to one another, the sequence spanning amino acids 388–421 was used as a peptide design master. To obtain a peptide with high internalization efficiency and a strong half‐life, we introduced a palmitic acid at the N‐terminus of the master sequence and amidated the C‐terminus. The designed peptide was named C16. A scrambled peptide containing a scrambled sequence targeting Spot1 was named SC and served as a negative control peptide. […] The static adsorption equilibrium experiment of immobilized STAT3 peptide was used to detect the binding rate of the synthesized peptide with STAT3 (Figure 7C). The concentration of immobilized STAT3 used was 85 nmol g^−1 wet gel. […] Thus, C16 acted as a powerful inhibitor of STAT3 dimerization and associated activity. Next, we determined the implication of C16 in tumor inhibition. […] A concentration of 25 uM was determined to be adequate for use in the subsequent experiments. […] Further, the impact of C16 on tumor propagation was examined in an intracranial xenograft model. U87 cells expressing luciferase were implanted into mouse brains. The mice were injected intraperitoneally (i.p.) with C16 or SC once every 2 days from the third day after cell transplantation. […] To investigate the effect of C16 on cell proliferation, EdU was injected 24 h prior to sacrifice.
Figure 7 Peptide derived from the STAT3‐binding sites of SHF is an effective GBM suppressive strategy. A) Binding model between SHF and STAT3 using ZDOCK server. […] B) IF staining determined the cell penetrability and nuclear‐localization of C16. U251 cells were incubated with C16 or SC for 2 h and performed IF staining using the indicated antibodies. Bars, 10 µm. C) The statical analysis of adsorption equilibrium assay detecting the binding of C16 and SC with recombinant STAT3. D) Pull‐down assay indicating C16 binds STAT3. GST‐STAT3 was incubated with C16 or SC for 2 h, and the pull‐down assay was performed using Anti‐His magnetic beads. E) IP assay showing the effect of C16 on STAT3 dimerization. 293T cells transfected with indicated vectors were incubated with C16 for 2 h. The relative quantification of STAT3 dimerization was listed. F) IP assay detecting the effect of C16 on the interaction of STAT3 and DNMT1. […] The relative quantification of STAT3/DNMT1 interaction was listed. […] The relative quantification of STAT3/DNMT1 interaction was listed. […]

Assay [1] relates to STAT3 transcriptional activity. In words: STAT3 transcriptional reporter (SIE luciferase) assay in U87 cells. It counts as cell-based, human. Conditions: C16 for 12 h, n = 3, p < 0.01. On the procedure:
Figure 7 Peptide derived from the STAT3‐binding sites of SHF is an effective GBM suppressive strategy. A) Binding model between SHF and STAT3 using ZDOCK server. […] B) IF staining determined the cell penetrability and nuclear‐localization of C16. U251 cells were incubated with C16 or SC for 2 h and performed IF staining using the indicated antibodies. Bars, 10 µm. C) The statical analysis of adsorption equilibrium assay detecting the binding of C16 and SC with recombinant STAT3. D) Pull‐down assay indicating C16 binds STAT3. GST‐STAT3 was incubated with C16 or SC for 2 h, and the pull‐down assay was performed using Anti‐His magnetic beads. E) IP assay showing the effect of C16 on STAT3 dimerization. 293T cells transfected with indicated vectors were incubated with C16 for 2 h. The relative quantification of STAT3 dimerization was listed. F) IP assay detecting the effect of C16 on the interaction of STAT3 and DNMT1. […] The relative quantification of STAT3/DNMT1 interaction was listed. […] The relative quantification of STAT3/DNMT1 interaction was listed. […] Positive cells were quantified 20 randomly selected fields per mouse (n = 6, Student's t‐test, **p < 0.01). […]
STAT3 transcriptional activity was evaluated by a luciferase reporter system according our previously study.^[ [19] ^] […] Cells were collected, lysed, and measured using the Dual‐Glo Luciferase Assay System kit (Promega).

immobilized STAT3, sequence (P40763 whole entry, the tested form may be a part): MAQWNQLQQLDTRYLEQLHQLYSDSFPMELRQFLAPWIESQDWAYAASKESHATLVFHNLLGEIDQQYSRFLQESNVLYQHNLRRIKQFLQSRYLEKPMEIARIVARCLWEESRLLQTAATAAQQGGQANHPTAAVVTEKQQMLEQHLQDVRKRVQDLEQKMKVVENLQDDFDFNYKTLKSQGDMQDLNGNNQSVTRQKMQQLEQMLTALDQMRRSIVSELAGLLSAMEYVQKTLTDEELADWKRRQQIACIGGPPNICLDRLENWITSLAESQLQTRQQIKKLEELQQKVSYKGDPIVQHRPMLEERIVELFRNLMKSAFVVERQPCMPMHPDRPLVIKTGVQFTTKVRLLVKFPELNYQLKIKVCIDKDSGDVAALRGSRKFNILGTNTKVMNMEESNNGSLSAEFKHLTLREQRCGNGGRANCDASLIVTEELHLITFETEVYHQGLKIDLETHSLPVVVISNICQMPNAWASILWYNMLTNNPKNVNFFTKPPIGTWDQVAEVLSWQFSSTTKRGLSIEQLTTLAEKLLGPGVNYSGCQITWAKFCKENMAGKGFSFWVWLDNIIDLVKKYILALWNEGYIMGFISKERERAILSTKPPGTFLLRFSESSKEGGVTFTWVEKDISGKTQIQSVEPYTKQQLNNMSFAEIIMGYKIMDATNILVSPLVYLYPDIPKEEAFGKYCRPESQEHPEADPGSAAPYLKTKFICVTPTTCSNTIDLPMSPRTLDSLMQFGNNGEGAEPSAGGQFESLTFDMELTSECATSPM

What is called Kd is the concentration at which binding is half-saturated. Consider “C16: peptide spanning SHF amino acids 388–421, palmitic acid at the N-terminus, amidated C-terminus, 3× His tags added to the C-terminal (PFSSVPEIVHHYASRKLPIKGAEHMSLLYPVAIR; palmitic acid at the N-terminus; amidated C-terminus; left off: 3× His tags, C-terminal, kept)”, for which the “maximum static adsorption (Qmax)” value with immobilized STAT3 (immobilized STAT3 85 nmol g^−1 wet gel, peptide 2-20 µM in PBS, stirred 12 h, free peptide by NanoDrop absorbance 240 nm, Langmuir isotherm, mean ± SD) came to 86.13 ± 0.18 nmol g^−1 wet gel. In addition, in the assay with immobilized STAT3 (immobilized STAT3 85 nmol g^−1 wet gel, peptide 2-20 µM in PBS, stirred 12 h, free peptide by NanoDrop absorbance 240 nm, Langmuir isotherm, mean ± SD, read-out: equilibrium dissociation constant KD), the Kd is 0.08 ± 0.02 µM. In addition, in the assay with immobilized STAT3 (maximum adsorption compared with actual amount of immobilized STAT3), the “interaction model (stoichiometry) with STAT3” value is 1:1 interaction model. In addition, in the assay with immobilized STAT3 (static adsorption on immobilized STAT3, C16 vs SC), the “KD of C16 compared with that of the SC peptide” value is given as “two orders of magnitude lower than that of the SC peptide”. The STAT3 transcriptional activity entry in assay [1] is on record as “significant decrease”.
